Test results: publication PMC5743471 (Theranostics, 2018)
Blank lines part the entries; values can stand above or below the binder they belong to.

Molecular target: mouse serum albumin (mouse, UniProt P07724 25-608)
Assay: SPR

Kd: 1.41 ± 0.04 nM
koff: 0.00305 s⁻¹
kon: 2.17e+06 M⁻¹ s⁻¹
B1: ABD-iTEP (designed binder)
chain: LAEAKVLANRELDKYGVSDFYKRLINKAKTVEGVEALKLHILAALPGVGVPGGVGVPGGVGVPGGVGVPGGVGVPGGVGVPGGVGVPGGVGVPGGVGVPGGVGVPGGVGVPGGVGVPGGVGVPGGVGVPGGVGVPGGVGVPGGVGVPGGVGVPGGVGVPGGVGVPGGVGVPGGVGVPGGVGVPGGVGVPGGVGVPGGVGVPGGVGVPGGVGVPGGVGVPGGVGVPGGVGVPGGVGVPGGVGVPGGVGVPGGVGVPGGVLPGVGGVLPGVGGVLPGVGGVLPGVGGVLPGVGGVLPGVGGVLPGVGGVLPGVGGVLPGVGGVLPGVGGVLPGVGGVLPGVGGVLPGVGGVLPGVGGVLPGVGGVLPGVG

Kd: 1.4 ± 0.1 nM
B2: ABD-iTEP-pOVA (designed binder)
chain: LAEAKVLANRELDKYGVSDFYKRLINKAKTVEGVEALKLHILAALPGVGVPGGVGVPGGVGVPGGVGVPGGVGVPGGVGVPGGVGVPGGVGVPGGVGVPGGVGVPGGVGVPGGVGVPGGVGVPGGVGVPGGVGVPGGVGVPGGVGVPGGVGVPGGVGVPGGVGVPGGVGVPGGVGVPGGVGVPGGVGVPGGVGVPGGVGVPGGVGVPGGVGVPGGVGVPGGVGVPGGVGVPGGVGVPGGVGVPGGVGVPGGVGVPGGVLPGVGGVLPGVGGVLPGVGGVLPGVGGVLPGVGGVLPGVGGVLPGVGGVLPGVGGVLPGVGGVLPGVGGVLPGVGGVLPGVGGVLPGVGGVLPGVGGVLPGVGGVLPGVGGSIINFEKL
